# Reference: patent publication US20160272683A1 (Novo Nordisk, published 2016)
# Numbered stars: 1 amine (or outer) side, 2 acyl side, 3 side chain; on linkers, the order of the positions; unused ones are H or OH. * marks the point of attachment. C20 diacid = O=C(O)CCCCCCCCCCCCCCCCCCC(=O)*; γGlu = O=C(O)[C@H](CCC(=O)[*:2])N[*:1]
# T1: human amylin receptor (amylin 3(a) receptor: human calcitonin receptor with RAMP-3) (human, UniProt P30988 25-474; O60896 24-148, limits assumed)
# T1 construct: whole, on cells; Assay V: membranes of the Amylin 3(a)/CRE-luc BHK cells on SPA beads; also called hAmylin-R
# T1 sequence (looked up) 1: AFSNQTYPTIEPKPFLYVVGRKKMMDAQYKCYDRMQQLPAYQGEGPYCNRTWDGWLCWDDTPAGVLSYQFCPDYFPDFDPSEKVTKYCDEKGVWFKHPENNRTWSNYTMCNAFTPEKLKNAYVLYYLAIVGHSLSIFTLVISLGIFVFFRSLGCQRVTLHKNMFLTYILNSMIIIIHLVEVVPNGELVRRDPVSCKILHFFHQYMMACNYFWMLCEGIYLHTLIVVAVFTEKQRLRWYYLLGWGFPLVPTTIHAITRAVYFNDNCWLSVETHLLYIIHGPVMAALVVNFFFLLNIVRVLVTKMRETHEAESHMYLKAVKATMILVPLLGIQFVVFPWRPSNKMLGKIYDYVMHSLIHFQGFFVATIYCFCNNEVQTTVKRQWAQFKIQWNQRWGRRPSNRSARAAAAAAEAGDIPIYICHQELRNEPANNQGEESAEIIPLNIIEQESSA
# T1 sequence (looked up) 2: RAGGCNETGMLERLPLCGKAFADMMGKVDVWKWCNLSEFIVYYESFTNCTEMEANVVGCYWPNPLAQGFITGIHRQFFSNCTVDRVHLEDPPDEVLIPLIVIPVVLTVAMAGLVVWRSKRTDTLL
# T2: human calcitonin receptor (human, UniProt P30988 25-474)
# T2 construct: whole, on cells; Assay VII: membranes on SPA beads; also called hCT-R; hCTR
# T2 sequence (looked up): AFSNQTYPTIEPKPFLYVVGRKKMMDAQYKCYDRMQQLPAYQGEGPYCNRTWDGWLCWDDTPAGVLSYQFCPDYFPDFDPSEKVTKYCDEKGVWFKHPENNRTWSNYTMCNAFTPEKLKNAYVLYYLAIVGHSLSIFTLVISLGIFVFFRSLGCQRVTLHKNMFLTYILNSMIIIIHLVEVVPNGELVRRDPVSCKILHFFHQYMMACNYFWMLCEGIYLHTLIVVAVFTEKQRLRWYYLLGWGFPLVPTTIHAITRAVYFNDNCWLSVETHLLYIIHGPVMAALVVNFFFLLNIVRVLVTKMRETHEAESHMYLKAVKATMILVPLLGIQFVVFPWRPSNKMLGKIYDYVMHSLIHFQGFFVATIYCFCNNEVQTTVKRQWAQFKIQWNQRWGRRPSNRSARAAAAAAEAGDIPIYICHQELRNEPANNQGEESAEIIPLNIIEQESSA
# Key:
# [1] = target: T1, human amylin receptor (amylin 3(a) …); test: SPA competition vs 125I-rat amylin, membranes with human CTR + RAMP-3 (Assay V)
# [2] = target: T2, human calcitonin receptor; test: SPA competition vs 125I-calcitonin, membranes with human CTR (Assay VII)
# Outline: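 SPA competition on membranes from BHK tk'ts 13 cells stably expressing human calcitonin receptor plus CRE-luciferase reporter; membranes 35 ng/μL final with 0.05 mg/well beads.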
Binder,IC50 [1] [nM],IC50 [2] [nM]
"{C20 diacid-γGlu}-ASGLSTLVLGRLSQELHELQTYPRTETGSQTY-NH2 (SMILES CC(C)C[C@H](NC(=O)CNC(=O)[C@H](CO)NC(=O)[C@H](C)NC(=O)CC[C@H](NC(=O)CCCCCCCCCCCCCCCCCCC(=O)O)C(=O)O)C(=O)N[C@@H](CO)C(=O)N[C@H](C(=O)N[C@@H](CC(C)C)C(=O)N[C@H](C(=O)N[C@@H](CC(C)C)C(=O)NCC(=O)N[C@@H](CCCNC(=N)N)C(=O)N[C@@H](CC(C)C)C(=O)N[C@@H](CO)C(=O)N[C@@H](CCC(N)=O)C(=O)N[C@@H](CCC(=O)O)C(=O)N[C@@H](CC(C)C)C(=O)N[C@@H](Cc1c[nH]cn1)C(=O)N[C@@H](CCC(=O)O)C(=O)N[C@@H](CC(C)C)C(=O)N[C@@H](CCC(N)=O)C(=O)N[C@H](C(=O)N[C@@H](Cc1ccc(O)cc1)C(=O)N1CCC[C@H]1C(=O)N[C@@H](CCCNC(=N)N)C(=O)N[C@H](C(=O)N[C@@H](CCC(=O)O)C(=O)N[C@H](C(=O)NCC(=O)N[C@@H](CO)C(=O)N[C@@H](CCC(N)=O)C(=O)N[C@H](C(=O)N[C@@H](Cc1ccc(O)cc1)C(N)=O)[C@@H](C)O)[C@@H](C)O)[C@@H](C)O)[C@@H](C)O)C(C)C)[C@@H](C)O, mimylin derivative; des1 = residue 1 deleted) [[N-terminal(C20 diacid-gGlu), des1, 4G, 8L, 9V, 15Q, 21Q, 23Y, 30S, 31Q, 32T, 33Y]mimylin]",0.225,0.193
"{C20 diacid-γGlu}-ASGLSTATLGRLSQELHELQTYPPTETGSGTY-NH2 (SMILES CC(C)C[C@H](NC(=O)CNC(=O)[C@H](CO)NC(=O)[C@H](C)NC(=O)CC[C@H](NC(=O)CCCCCCCCCCCCCCCCCCC(=O)O)C(=O)O)C(=O)N[C@@H](CO)C(=O)N[C@H](C(=O)N[C@@H](C)C(=O)N[C@H](C(=O)N[C@@H](CC(C)C)C(=O)NCC(=O)N[C@@H](CCCNC(=N)N)C(=O)N[C@@H](CC(C)C)C(=O)N[C@@H](CO)C(=O)N[C@@H](CCC(N)=O)C(=O)N[C@@H](CCC(=O)O)C(=O)N[C@@H](CC(C)C)C(=O)N[C@@H](Cc1c[nH]cn1)C(=O)N[C@@H](CCC(=O)O)C(=O)N[C@@H](CC(C)C)C(=O)N[C@@H](CCC(N)=O)C(=O)N[C@H](C(=O)N[C@@H](Cc1ccc(O)cc1)C(=O)N1CCC[C@H]1C(=O)N1CCC[C@H]1C(=O)N[C@H](C(=O)N[C@@H](CCC(=O)O)C(=O)N[C@H](C(=O)NCC(=O)N[C@@H](CO)C(=O)NCC(=O)N[C@H](C(=O)N[C@@H](Cc1ccc(O)cc1)C(N)=O)[C@@H](C)O)[C@@H](C)O)[C@@H](C)O)[C@@H](C)O)[C@@H](C)O)[C@@H](C)O, mimylin derivative; des1 = residue 1 deleted) [[N-terminal(C20 diacid-gGlu), des1, 4G, 9T, 15Q, 21Q, 23Y, 25P, 30S, 31G, 32T, 33Y]mimylin]",0.216,0.053
"{C20 diacid-γGlu}-ASGLSTAVLGKLSQELHELQTYPPTETGSGTY-NH2 (SMILES CC(C)C[C@H](NC(=O)CNC(=O)[C@H](CO)NC(=O)[C@H](C)NC(=O)CC[C@H](NC(=O)CCCCCCCCCCCCCCCCCCC(=O)O)C(=O)O)C(=O)N[C@@H](CO)C(=O)N[C@H](C(=O)N[C@@H](C)C(=O)N[C@H](C(=O)N[C@@H](CC(C)C)C(=O)NCC(=O)N[C@@H](CCCCN)C(=O)N[C@@H](CC(C)C)C(=O)N[C@@H](CO)C(=O)N[C@@H](CCC(N)=O)C(=O)N[C@@H](CCC(=O)O)C(=O)N[C@@H](CC(C)C)C(=O)N[C@@H](Cc1c[nH]cn1)C(=O)N[C@@H](CCC(=O)O)C(=O)N[C@@H](CC(C)C)C(=O)N[C@@H](CCC(N)=O)C(=O)N[C@H](C(=O)N[C@@H](Cc1ccc(O)cc1)C(=O)N1CCC[C@H]1C(=O)N1CCC[C@H]1C(=O)N[C@H](C(=O)N[C@@H](CCC(=O)O)C(=O)N[C@H](C(=O)NCC(=O)N[C@@H](CO)C(=O)NCC(=O)N[C@H](C(=O)N[C@@H](Cc1ccc(O)cc1)C(N)=O)[C@@H](C)O)[C@@H](C)O)[C@@H](C)O)[C@@H](C)O)C(C)C)[C@@H](C)O, mimylin derivative; des1 = residue 1 deleted) [[N-terminal(C20 diacid-gGlu), des1, 4G, 9V, 12K, 15Q, 21Q, 23Y, 25P, 30S, 31G, 32T, 33Y]mimylin]",0.72,0.651

# Now those with a lower IC50 [1], led by results:
IC50 [1] [nM],IC50 [2] [nM],Binder
0.166,0.15,"{C20 diacid-γGlu}-ASGLSTAALGRLSQELHELQTYPHTETGSGTY-NH2 (SMILES CC(C)C[C@H](NC(=O)CNC(=O)[C@H](CO)NC(=O)[C@H](C)NC(=O)CC[C@H](NC(=O)CCCCCCCCCCCCCCCCCCC(=O)O)C(=O)O)C(=O)N[C@@H](CO)C(=O)N[C@H](C(=O)N[C@@H](C)C(=O)N[C@@H](C)C(=O)N[C@@H](CC(C)C)C(=O)NCC(=O)N[C@@H](CCCNC(=N)N)C(=O)N[C@@H](CC(C)C)C(=O)N[C@@H](CO)C(=O)N[C@@H](CCC(N)=O)C(=O)N[C@@H](CCC(=O)O)C(=O)N[C@@H](CC(C)C)C(=O)N[C@@H](Cc1c[nH]cn1)C(=O)N[C@@H](CCC(=O)O)C(=O)N[C@@H](CC(C)C)C(=O)N[C@@H](CCC(N)=O)C(=O)N[C@H](C(=O)N[C@@H](Cc1ccc(O)cc1)C(=O)N1CCC[C@H]1C(=O)N[C@@H](Cc1c[nH]cn1)C(=O)N[C@H](C(=O)N[C@@H](CCC(=O)O)C(=O)N[C@H](C(=O)NCC(=O)N[C@@H](CO)C(=O)NCC(=O)N[C@H](C(=O)N[C@@H](Cc1ccc(O)cc1)C(N)=O)[C@@H](C)O)[C@@H](C)O)[C@@H](C)O)[C@@H](C)O)[C@@H](C)O, mimylin derivative; des1 = residue 1 deleted) [[N-terminal(C20 diacid-gGlu), des1, 4G, 15Q, 21Q, 23Y, 25H, 30S, 31G, 32T, 33Y]mimylin]"
0.131,0.051,"{C20 diacid-γGlu}-ASGLSTAALGRLSQELHELQTYPRTETGSQTY-NH2 (SMILES CC(C)C[C@H](NC(=O)CNC(=O)[C@H](CO)NC(=O)[C@H](C)NC(=O)CC[C@H](NC(=O)CCCCCCCCCCCCCCCCCCC(=O)O)C(=O)O)C(=O)N[C@@H](CO)C(=O)N[C@H](C(=O)N[C@@H](C)C(=O)N[C@@H](C)C(=O)N[C@@H](CC(C)C)C(=O)NCC(=O)N[C@@H](CCCNC(=N)N)C(=O)N[C@@H](CC(C)C)C(=O)N[C@@H](CO)C(=O)N[C@@H](CCC(N)=O)C(=O)N[C@@H](CCC(=O)O)C(=O)N[C@@H](CC(C)C)C(=O)N[C@@H](Cc1c[nH]cn1)C(=O)N[C@@H](CCC(=O)O)C(=O)N[C@@H](CC(C)C)C(=O)N[C@@H](CCC(N)=O)C(=O)N[C@H](C(=O)N[C@@H](Cc1ccc(O)cc1)C(=O)N1CCC[C@H]1C(=O)N[C@@H](CCCNC(=N)N)C(=O)N[C@H](C(=O)N[C@@H](CCC(=O)O)C(=O)N[C@H](C(=O)NCC(=O)N[C@@H](CO)C(=O)N[C@@H](CCC(N)=O)C(=O)N[C@H](C(=O)N[C@@H](Cc1ccc(O)cc1)C(N)=O)[C@@H](C)O)[C@@H](C)O)[C@@H](C)O)[C@@H](C)O)[C@@H](C)O, mimylin derivative; des1 = residue 1 deleted) [[N-terminal(C20 diacid-gGlu), des1, 4G, 15Q, 21Q, 23Y, 30S, 31Q, 32T, 33Y]mimylin]"
0.152,0.067,"{C20 diacid-γGlu}-ASGLSTAVLGRLSQELHELQTYPRTETGSQTY-NH2 (SMILES CC(C)C[C@H](NC(=O)CNC(=O)[C@H](CO)NC(=O)[C@H](C)NC(=O)CC[C@H](NC(=O)CCCCCCCCCCCCCCCCCCC(=O)O)C(=O)O)C(=O)N[C@@H](CO)C(=O)N[C@H](C(=O)N[C@@H](C)C(=O)N[C@H](C(=O)N[C@@H](CC(C)C)C(=O)NCC(=O)N[C@@H](CCCNC(=N)N)C(=O)N[C@@H](CC(C)C)C(=O)N[C@@H](CO)C(=O)N[C@@H](CCC(N)=O)C(=O)N[C@@H](CCC(=O)O)C(=O)N[C@@H](CC(C)C)C(=O)N[C@@H](Cc1c[nH]cn1)C(=O)N[C@@H](CCC(=O)O)C(=O)N[C@@H](CC(C)C)C(=O)N[C@@H](CCC(N)=O)C(=O)N[C@H](C(=O)N[C@@H](Cc1ccc(O)cc1)C(=O)N1CCC[C@H]1C(=O)N[C@@H](CCCNC(=N)N)C(=O)N[C@H](C(=O)N[C@@H](CCC(=O)O)C(=O)N[C@H](C(=O)NCC(=O)N[C@@H](CO)C(=O)N[C@@H](CCC(N)=O)C(=O)N[C@H](C(=O)N[C@@H](Cc1ccc(O)cc1)C(N)=O)[C@@H](C)O)[C@@H](C)O)[C@@H](C)O)[C@@H](C)O)C(C)C)[C@@H](C)O, mimylin derivative; des1 = residue 1 deleted) [[N-terminal(C20 diacid-gGlu), des1, 4G, 9V, 15Q, 21Q, 23Y, 30S, 31Q, 32T, 33Y]mimylin]"
